Nine molecules from patent publication CN117990807A (BEIJING DONGFANG BIOTECH CO LTD; BEIJING JINGYI TAIXIANG …, dated 2024) can be followed below.

Assay [1] deals with T1, TSLP (人TSLP, thymic stromal lymphopoietin) (human, UniProt Q969D9 29-159, limits assumed).
T1 construct: also called TSLP抗原; 抗原TSLP
The experiment in a line: ELISA, TSLP coated, goat anti-mouse IgG-HRP. (ELISA stands for enzyme-linked immunosorbent assay.)

For assay [2], the target named is T2, 人TSLP-His (human, UniProt Q969D9 29-159, limits assumed).
T2 construct: also called TSLP(Human); not shown: His tag
As to the kind of experiment: competition ELISA: CRLF2-Fc coated, TSLP-His 10μg/ml plus antibody dilutions, anti-His-HRP.

In assay [3] the target is T3, 猴TSLP-His (食蟹猴TSLP) (cynomolgus monkey, UniProt A0A7N9CAT7 29-159).
T3 construct: Bought protein; also called TSLP(Cynomolgus); not shown: His tag
The experiment in a line: ELISA, cynomolgus TSLP-His coated, goat anti-human IgG-HRP.

Assay [4] deals with T4, 鼠TSLP-His (mouse, UniProt Q9JIE6 20-140).
T4 construct: Bought protein; also called TSLP(Mouse); not shown: His tag
T4 sequence (looked up): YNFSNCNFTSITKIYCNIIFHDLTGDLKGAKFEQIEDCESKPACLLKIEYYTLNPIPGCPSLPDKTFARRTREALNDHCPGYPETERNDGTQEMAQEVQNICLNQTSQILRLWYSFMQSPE
As to the kind of experiment: ELISA, mouse TSLP-His coated.

For assay [5], the target named is T2, 人TSLP-His. The experiment in a line: ELISA, TSLP-His coated, goat anti-human IgG-HRP.

Positions count from the first letter of the chain named.

T3 sequence (A0A7N9CAT7 entry or part of it): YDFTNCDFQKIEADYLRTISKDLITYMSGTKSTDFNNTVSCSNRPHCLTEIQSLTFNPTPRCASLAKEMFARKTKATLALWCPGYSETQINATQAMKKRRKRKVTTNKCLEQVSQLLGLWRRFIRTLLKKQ

B1: MA-Ⅰ鼠源抗TSLP单克隆抗体 (murine IgG1/Ck) (antibody)
heavy: QVQLEQSGAELVKPGASVKMSCKASGYTFTSYWMHWVKQRPGQGLEWIGLIDPSDSDTTYNQKFKGKATLTVDTSSSTAYMQLGSLTSEDSAVYYCSRSLDGYFDHWGQGTLVTVSAAKTTPPSVYPLAPGSAAQTNSMVTLGCLVKGYFPEPVTVTWNSGSLSSGVHTFPAVLQSDLYTLSSSVTVPSSTWPSETVTCNVAHPASSTKVDKKIVPRDCGCKPCICTVPEVSSVFIFPPKPKDVLTITLTPKVTCVVVDISKDDPEVQFSWFVDDVEVHTAQTQPREEQFNSTFRSVSELPIMHQDWLNGKEFKCRVNSAAFPAPIEKTISKTKGRPKAPQVYTIPPPKEQMAKDKVSLTCMITDFFPEDITVEWQWNGQPAENYKNTQPIMDTDGSYFVYSKLNVQKSNWEAGNTFTCSVLHEGLHNHHTEKSLSHSPG
light: DIVMTQSPASLSASVGETVTITCRASENIYSYLAWYQQKQGKSPQLLVYNARTLAEGVPSRFSGSGSGTQFSLKINSLQPEDFGSFYCQHHYGTPWTFGGGTKLEIKADAAPTVSIFPPSSEQLTSGGASVVCFLNNFYPKDINVKWKIDGSERQNGVLNSWTDQDSKDSTYSMSSTLTLTKDEYERHNSYTCEATHKTSTSPIVKSFNRNEC
notes: also called MA-I
By EC50 is commonly meant the concentration needed to bring the measured effect to its halfway point. Read a low EC50 as a more potent agent. As usually defined, the IC50 is the point on the concentration scale where inhibition reaches its midpoint. The molecule B1 had an EC50 in assay [1] of 0.0011 µg/mL. Further, the concentration for half-maximal inhibition (IC50) in assay [2] was found to be 1.52 µg/mL.

B2: MA-Ⅱ鼠源抗TSLP单克隆抗体 (murine IgG1/Ck) (antibody, V domains shown)
VH: QVKLQQSGAELVKPGASVKMSCKASGYTFTTYWMHWVKQRPGQGLEWIGVIDPSDSYITYNQKFKGKATLTVDTSSSTAYMQLSSLTSEDSAVYYCTRSLDGYFDYWGQGTLVTVSA
VL: DIVLTQSPASLSASVGETVTITCRASENIYSYLAWYQQKQGKSPQLLVYNAKTLAEGVPSRFSGSGSGTQFSLKINSLQPEDFGSYYCQHHYGTPWTFGGGTKLEIKA
Take B2: in assay [1], the EC50 turned out to be 0.00204 µg/mL. In assay [2], the IC50 came to 15.6 µg/mL.

B3: 人源化抗TSLP单克隆抗体HA-Ⅱ (antibody, human IgG1, kappa, L234A L235A, V domains shown)
VH: QVQLVQSGAEVKKPGASVKVSCKASGYTFTSYWMHWVRQAPGQGLEWIGLIDPSDSDTTYNQKFKGRATLTVDTSTSTAYMELSSLRSEDTAVYYCSRSLDGYFDHWGQGTLVTVSS
VL: DIVMTQSPSSLSASVGDRVTITCRASENIYSYLAWYQQKPGKAPKLLVYNARTLAEGVPSRFSGSGSGTDFTLTISSLQPEDFATYYCQHHYGTPWTFGGGTKVEIKR
notes: Humanized from MA-Ⅰ
The molecule B3 had an EC50 in assay [3] of 0.0508 µg/mL. In addition, the binding result in assay [4] is “no binding (tested: 16μg/ml)”.

B4: 人源化抗TSLP单克隆抗体HA-Ⅲ (antibody, human IgG1, kappa, L234A L235A)
heavy: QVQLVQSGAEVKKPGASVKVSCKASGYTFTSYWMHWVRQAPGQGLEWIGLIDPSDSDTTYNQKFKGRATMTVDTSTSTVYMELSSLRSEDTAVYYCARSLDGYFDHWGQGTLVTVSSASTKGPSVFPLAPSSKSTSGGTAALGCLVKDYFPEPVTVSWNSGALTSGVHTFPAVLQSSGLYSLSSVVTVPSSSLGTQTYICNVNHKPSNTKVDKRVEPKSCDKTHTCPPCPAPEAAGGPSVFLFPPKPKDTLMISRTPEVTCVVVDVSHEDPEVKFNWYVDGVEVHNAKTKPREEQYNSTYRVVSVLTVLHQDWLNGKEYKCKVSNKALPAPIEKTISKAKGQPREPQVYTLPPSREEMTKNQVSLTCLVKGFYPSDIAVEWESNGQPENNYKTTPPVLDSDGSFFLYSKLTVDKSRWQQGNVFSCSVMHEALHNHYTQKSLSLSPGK
light: DIQMTQSPSSLSASVGDRVTITCRASENIYSYLAWYQQKPGKAPKLLVYNARTLAEGVPSRFSGSGSGTDFTLTISSLQPEDFATYYCQHHYGTPWTFGGGTKVEIKRTVAAPSVFIFPPSDEQLKSGTASVVCLLNNFYPREAKVQWKVDNALQSGNSQESVTEQDSKDSTYSLSSTLTLSKADYEKHKVYACEVTHQGLSSPVTKSFNRGEC
notes: Humanized from MA-Ⅰ
In the case of B4, the EC50 in assay [3] came to 0.0892 µg/mL. In addition, in assay [4], the binding result is “no binding (tested: 16μg/ml)”.

B5: 人源化抗TSLP单克隆抗体HA-Ⅳ (antibody, human IgG1, kappa, L234A L235A)
heavy: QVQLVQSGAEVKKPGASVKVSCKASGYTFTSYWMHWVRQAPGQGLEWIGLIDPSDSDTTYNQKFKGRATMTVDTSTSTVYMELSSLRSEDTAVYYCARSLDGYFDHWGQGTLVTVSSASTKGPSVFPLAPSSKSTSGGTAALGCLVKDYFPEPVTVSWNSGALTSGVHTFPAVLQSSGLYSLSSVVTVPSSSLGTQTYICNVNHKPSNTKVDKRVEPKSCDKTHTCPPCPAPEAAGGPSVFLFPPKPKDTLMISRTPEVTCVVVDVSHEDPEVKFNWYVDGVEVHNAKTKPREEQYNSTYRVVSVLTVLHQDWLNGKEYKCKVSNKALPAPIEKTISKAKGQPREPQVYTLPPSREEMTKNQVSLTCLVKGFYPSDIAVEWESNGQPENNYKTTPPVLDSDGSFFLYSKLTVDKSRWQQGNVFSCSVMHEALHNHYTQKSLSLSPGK
light: B4 light with Q3V
notes: Humanized from MA-Ⅰ
B5 gave an EC50 in assay [3] of 0.0508 µg/mL. Besides, the binding result in assay [4] is reported as “no binding (tested: 16μg/ml)”.

B6: 人源化抗TSLP单克隆抗体HA-Ⅰ (antibody, human IgG1, kappa, L234A L235A, V domains shown)
VH: B3 VH
VL: B3 VL with A43S
notes: Humanized from MA-Ⅰ; also called HA-1
Turning to B6, the EC50 in assay [3] turned out to be 0.0273 µg/mL. Further, the binding result in assay [4] is recorded as “no binding (tested: 16μg/ml)”.

B7: MA-Ⅲ鼠源抗TSLP单克隆抗体 (murine IgG1/Ck) (antibody, V domains shown)
VH: B2 VH with K3Q, S7P, T31S, Y57D, I58T, A79V, Y106H
VL: B2 VL with L4M, E27G, Y30H, S31N, E56D, F71Y, H91F, Y92W, G93S
Consider B7, for which the EC50 in assay [1] was 0.00198 µg/mL. Further, the half-maximal inhibitory concentration (IC50) in assay [2] worked out at 2.4 µg/mL.

B8: MA-Ⅳ鼠源抗TSLP单克隆抗体 (murine IgG1/Ck) (antibody, V domains shown)
VH: B2 VH with Q5E, T31S, Y57D, I58T, Y106H
VL: DIVITQTPASLSASVGETVTITCRASGNIHNYLAWYQQKQGKSPQLLVYNTKTLADGVPSRFSGSGSGTQYSLKINSLQPEDFGSYYCQHFWSTPYTFGGGTKLEIKA
Take B8: in assay [1], the EC50 stood at 0.00557 µg/mL. In addition, the IC50 in assay [2] stood at 11.8 µg/mL.

B9: 嵌合抗体CA-Ⅰ (antibody, human IgG1, kappa, L234A L235A)
heavy: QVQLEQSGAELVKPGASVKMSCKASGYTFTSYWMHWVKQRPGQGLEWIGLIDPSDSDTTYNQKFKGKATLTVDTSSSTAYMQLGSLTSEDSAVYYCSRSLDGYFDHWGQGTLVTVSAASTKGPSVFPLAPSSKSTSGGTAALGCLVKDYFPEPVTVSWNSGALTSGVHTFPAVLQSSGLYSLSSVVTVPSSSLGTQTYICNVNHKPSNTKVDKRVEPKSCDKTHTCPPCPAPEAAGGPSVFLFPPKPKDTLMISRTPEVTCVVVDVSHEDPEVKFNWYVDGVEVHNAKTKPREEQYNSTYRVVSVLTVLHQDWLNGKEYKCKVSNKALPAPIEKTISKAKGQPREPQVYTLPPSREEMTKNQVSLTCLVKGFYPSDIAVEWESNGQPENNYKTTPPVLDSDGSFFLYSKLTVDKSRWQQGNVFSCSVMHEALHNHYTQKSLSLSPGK
light: DIVMTQSPASLSASVGETVTITCRASENIYSYLAWYQQKQGKSPQLLVYNARTLAEGVPSRFSGSGSGTQFSLKINSLQPEDFGSFYCQHHYGTPWTFGGGTKLEIKRTVAAPSVFIFPPSDEQLKSGTASVVCLLNNFYPREAKVQWKVDNALQSGNSQESVTEQDSKDSTYSLSSTLTLSKADYEKHKVYACEVTHQGLSSPVTKSFNRGEC
notes: also called chimeric antibody CA-I
For the molecule B9, the EC50 in assay [5] amounted to 0.0131 µg/mL.
